{"source": "patent US20180201951A1", "molecular_target": "interleukin 1 receptor 1 (Il1r1), murine (mouse) (UniProt P13504)", "sequence (P13504 20-576)": "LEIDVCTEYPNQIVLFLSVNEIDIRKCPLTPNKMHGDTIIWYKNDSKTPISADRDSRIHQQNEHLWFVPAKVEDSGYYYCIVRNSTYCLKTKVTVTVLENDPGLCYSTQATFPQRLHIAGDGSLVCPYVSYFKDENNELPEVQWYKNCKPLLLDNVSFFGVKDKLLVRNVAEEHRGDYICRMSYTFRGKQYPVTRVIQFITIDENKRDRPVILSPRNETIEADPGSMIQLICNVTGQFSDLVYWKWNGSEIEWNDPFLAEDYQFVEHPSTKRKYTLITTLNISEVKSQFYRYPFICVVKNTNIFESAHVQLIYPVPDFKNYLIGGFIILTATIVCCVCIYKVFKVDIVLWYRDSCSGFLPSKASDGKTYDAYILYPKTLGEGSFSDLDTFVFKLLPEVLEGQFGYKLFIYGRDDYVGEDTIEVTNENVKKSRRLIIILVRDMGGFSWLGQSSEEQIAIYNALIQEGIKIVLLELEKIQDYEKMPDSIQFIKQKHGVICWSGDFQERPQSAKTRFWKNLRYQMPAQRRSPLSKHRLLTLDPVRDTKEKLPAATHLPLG", "assay": "cell-based or functional assay", "data": [{"substance": "IL-1α (ligand)", "values": [{"measurement": "NF-κB transcriptional activity (luciferase reporter), fold induction after IL-1α stimulation of Il1r1+/- cells", "result": 4.8, "unit": "fold"}, {"measurement": "NF-κB transcriptional activity (luciferase reporter), fold induction after IL-1α stimulation of wild-type (Il1r1+/+) cells", "result": 6.3, "unit": "fold"}]}]}
